# Assay results taken from paper doi:10.1101/2025.11.18.689095 (2025).
# Where “and” joins values, the source holds several entries; their conditions need not be identical. Identical values can stand only once. Like-named read-outs stand apart in the source and are kept apart here. Where no end group is shown, it is not given here.
# T1: Tom70:Orf9b_(Helix) complex (human | SARS-CoV-2, UniProt O94826 108-608)
# T1 chain 1: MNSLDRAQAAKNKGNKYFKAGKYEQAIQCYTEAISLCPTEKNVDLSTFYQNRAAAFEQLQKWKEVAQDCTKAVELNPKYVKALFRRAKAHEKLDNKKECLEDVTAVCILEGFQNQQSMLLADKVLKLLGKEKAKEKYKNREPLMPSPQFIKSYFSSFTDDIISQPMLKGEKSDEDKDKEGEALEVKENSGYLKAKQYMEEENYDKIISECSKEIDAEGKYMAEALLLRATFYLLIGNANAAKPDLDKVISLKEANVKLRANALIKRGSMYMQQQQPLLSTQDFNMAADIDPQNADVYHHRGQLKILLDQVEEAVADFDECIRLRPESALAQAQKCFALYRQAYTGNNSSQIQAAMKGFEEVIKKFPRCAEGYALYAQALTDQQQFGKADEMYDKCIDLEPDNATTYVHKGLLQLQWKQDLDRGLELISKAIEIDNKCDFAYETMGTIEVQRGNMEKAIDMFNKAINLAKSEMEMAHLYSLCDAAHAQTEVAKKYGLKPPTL
# T1 chain 2: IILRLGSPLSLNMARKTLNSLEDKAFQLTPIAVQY
# T2: human Tom70 (residues 108–608) (human, UniProt O94826 108-608)
# T2 chain: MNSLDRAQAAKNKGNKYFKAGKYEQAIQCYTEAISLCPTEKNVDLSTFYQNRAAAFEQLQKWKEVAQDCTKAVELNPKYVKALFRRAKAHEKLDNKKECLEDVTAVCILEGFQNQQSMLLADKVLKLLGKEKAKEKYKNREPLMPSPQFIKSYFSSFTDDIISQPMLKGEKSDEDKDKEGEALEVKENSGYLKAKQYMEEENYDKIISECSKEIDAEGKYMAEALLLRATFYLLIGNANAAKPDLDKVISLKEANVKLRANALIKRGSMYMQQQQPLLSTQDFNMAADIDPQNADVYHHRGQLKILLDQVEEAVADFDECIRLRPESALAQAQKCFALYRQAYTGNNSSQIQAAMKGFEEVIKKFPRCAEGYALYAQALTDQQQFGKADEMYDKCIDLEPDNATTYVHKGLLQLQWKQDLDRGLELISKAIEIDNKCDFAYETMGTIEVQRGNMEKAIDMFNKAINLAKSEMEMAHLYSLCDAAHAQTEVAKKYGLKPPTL
# Legend:
# [1] = target: T1, Tom70:Orf9b_(Helix) complex; assay: ITC
# [2] = target: T1, Tom70:Orf9b_(Helix) complex; assay: ITC
# [3] = target: T2, human Tom70 (residues 108–608); assay: ITC
# [4] = target: T2, human Tom70 (residues 108–608); assay: ITC; run 1
# [5] = target: T2, human Tom70 (residues 108–608); assay: ITC; run 2
# [6] = target: T2, human Tom70 (residues 108–608); assay: ITC; run 3
# [7] = target: T2, human Tom70 (residues 108–608); assay: ITC; average
binder,measurement,setting,value
YDTSRMEEVD-OH [Hsp90_(EEVD) peptide],Kd,[1],12.4 µM and 12.8 µM and 12.3 µM and 11.8 µM
same,Kd,[2],12 µM
same,Kd,[3],12 µM
same,Kd,[4],12.8 µM
same,Kd,[5],10.9 µM
same,Kd,[6],11.9 µM
same,Kd,[7],11.9 µM
